Reference: article PMC9886945 (Nature Communications, 2023)

Tests used:
Experiment in all cases: cryo-EM structure
[1] = biological target: T1, Mycobacterium tuberculosis RNA polymerase β subunit (M. tuberculosis, UniProt P9WGY9); details: both partners purified
T1 sequence: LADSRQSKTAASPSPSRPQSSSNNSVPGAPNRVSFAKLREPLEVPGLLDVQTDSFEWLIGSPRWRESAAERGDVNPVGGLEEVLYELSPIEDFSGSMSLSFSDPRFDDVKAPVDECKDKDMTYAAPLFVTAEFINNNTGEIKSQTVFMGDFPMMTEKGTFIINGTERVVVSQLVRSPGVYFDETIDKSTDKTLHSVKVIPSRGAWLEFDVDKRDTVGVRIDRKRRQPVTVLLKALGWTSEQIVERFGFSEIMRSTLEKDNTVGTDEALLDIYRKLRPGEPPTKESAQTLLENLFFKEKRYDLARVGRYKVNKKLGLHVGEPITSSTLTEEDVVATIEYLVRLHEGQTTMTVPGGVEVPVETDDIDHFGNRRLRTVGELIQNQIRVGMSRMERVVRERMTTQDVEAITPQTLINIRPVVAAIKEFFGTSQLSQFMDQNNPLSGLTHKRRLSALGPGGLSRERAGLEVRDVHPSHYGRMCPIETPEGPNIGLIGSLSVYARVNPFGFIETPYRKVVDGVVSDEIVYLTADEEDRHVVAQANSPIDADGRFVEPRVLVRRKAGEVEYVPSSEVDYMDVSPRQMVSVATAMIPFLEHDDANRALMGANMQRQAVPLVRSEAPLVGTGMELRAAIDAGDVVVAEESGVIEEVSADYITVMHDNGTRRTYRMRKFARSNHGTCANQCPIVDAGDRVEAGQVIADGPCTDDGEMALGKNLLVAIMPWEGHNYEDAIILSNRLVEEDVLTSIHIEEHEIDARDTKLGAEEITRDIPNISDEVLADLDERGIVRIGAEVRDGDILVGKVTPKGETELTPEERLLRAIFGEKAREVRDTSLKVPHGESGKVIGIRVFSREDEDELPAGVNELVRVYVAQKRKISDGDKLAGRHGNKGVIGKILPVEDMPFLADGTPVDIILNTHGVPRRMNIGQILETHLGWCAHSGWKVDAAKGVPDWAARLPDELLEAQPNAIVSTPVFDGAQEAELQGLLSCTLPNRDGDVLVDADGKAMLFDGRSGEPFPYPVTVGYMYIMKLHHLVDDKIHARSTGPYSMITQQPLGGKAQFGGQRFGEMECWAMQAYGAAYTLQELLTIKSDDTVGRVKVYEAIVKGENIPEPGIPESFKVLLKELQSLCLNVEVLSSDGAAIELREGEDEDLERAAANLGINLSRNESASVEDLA

[2] = biological target: Mycobacterium tuberculosis RNA polymerase β' subunit (M. tuberculosis, UniProt P9WGY7); details: both partners purified
Sequence of Mycobacterium tuberculosis RNA polymerase β' subunit (P9WGY7 whole entry): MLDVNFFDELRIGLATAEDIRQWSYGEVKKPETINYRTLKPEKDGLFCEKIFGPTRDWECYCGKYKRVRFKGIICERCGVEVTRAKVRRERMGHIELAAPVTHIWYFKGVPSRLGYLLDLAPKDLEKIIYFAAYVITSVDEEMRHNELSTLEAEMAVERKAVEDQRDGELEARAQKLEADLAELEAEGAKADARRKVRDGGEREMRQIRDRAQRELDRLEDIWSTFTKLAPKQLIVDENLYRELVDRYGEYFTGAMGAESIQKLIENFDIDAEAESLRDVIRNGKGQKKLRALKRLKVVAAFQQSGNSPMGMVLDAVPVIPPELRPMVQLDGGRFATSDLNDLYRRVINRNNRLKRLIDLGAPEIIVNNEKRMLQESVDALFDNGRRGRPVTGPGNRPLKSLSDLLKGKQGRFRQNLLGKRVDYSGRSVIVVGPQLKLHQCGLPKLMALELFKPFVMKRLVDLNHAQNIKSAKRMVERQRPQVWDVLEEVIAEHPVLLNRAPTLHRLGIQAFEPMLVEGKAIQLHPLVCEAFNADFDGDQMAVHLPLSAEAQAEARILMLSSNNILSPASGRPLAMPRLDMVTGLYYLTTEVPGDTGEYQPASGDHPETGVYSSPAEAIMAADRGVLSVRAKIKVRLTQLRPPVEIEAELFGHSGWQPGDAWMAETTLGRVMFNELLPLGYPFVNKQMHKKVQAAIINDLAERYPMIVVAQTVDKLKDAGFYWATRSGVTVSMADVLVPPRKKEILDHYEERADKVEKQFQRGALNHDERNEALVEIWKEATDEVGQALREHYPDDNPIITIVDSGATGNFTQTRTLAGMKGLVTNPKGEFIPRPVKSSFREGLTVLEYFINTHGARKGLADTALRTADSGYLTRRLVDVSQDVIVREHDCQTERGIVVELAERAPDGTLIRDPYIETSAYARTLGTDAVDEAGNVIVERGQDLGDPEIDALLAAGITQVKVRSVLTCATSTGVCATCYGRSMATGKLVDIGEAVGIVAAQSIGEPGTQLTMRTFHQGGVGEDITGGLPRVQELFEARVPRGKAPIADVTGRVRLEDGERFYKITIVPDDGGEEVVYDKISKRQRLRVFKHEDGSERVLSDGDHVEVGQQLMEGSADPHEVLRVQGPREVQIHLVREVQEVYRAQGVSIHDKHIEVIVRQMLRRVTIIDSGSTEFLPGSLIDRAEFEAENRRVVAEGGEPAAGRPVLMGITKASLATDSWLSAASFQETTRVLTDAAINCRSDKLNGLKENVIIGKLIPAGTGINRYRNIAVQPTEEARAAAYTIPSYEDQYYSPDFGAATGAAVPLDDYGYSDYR

cryo-EM structure = biological target: the molecule itself

Measured: binding result

B1: Mycobacterium tuberculosis σ^B subunit (natural protein)
chain: MADAPTRATTSRVDSDLDAQSPAADLVRVYLNGIGKTALLNAAGEVELAKRIEAGLYAEHLLETRKRLGENRKRDLAAVVRDGEAARRHLLEANLRLVVSLAKRYTGRGMPLLDLIQEGNLGLIRAMEKFDYTKGFKFSTYATWWIRQAITRGMADQSRTIRLPVHLVEQVNKLARIKREMHQHLGREATDEELAAESGIPIDKINDLLEHSRDPVSLDMPVGSEEEAPLGDFIEDAEAMSAENAVIAELLHTDIRSVLATLDEREHQVIRLRFGLDDGQPRTLDQIGKLFGLSRERVRQIERDVMSKLRHGERADRLRSYAS
binds: all assays above
